The values that follow come from PMC9195047 (The Journal of Experimental Medicine, 2022).

Experiment [1] deals with CHIKV 181/25 structural proteins on infected Vero cells (Chikungunya virus, 181/25, UniProt Q88628, strain). Kind of experiment: flow cytometry on cells.
The target in experiment [2] is VEEV TC-83 structural proteins (capsid-p62-6K-E1) displayed on Expi293F cells (Venezuelan equine encephalitis virus, …, UniProt P05674, strain). Kind of experiment: flow cytometry on cells.

B1: hVEEV-63 (human anti-VEEV monoclonal antibody, IgG1) (antibody, V domains shown)
VH: QVQLVQSGAEVKKPGASVKVSCKSSGYTFTNYIIHWVRQAPGQRLEWMGWINAGNGNTKYSQKFQGRISVTRDTSASAAYMELSSLKSEDTALYYCATLQMDYGGNGDLDYWGQGTLVTVSS
VL: YELTQPPSVSVSPGQTARITCSGDALPKQYVYWYQQKPGQAPVLVIYKDSERPSGIPERFSGSSSGTTVTLTISGVQAEDDADYYCQAADSSNTEYVFGTGTKVTVL
As for B1, the binding result in experiment [1] is on record as “no binding (tested: 10 µg/ml)”; in experiment [2] it was “binds”.
